# Measurements reported in publication PMC12440807.
# Biological target: RNA polymerase II;RECQL5 (Sus scrofa domesticus?;Homo sapiens, UniProt A0A8D1DPV6;A0A0B8RVL1;P19387;O15514;I3LSI7;P61218;P62487;P52434;P36954;P52435;P6 …, |)
# Test: cryo-EM; phosphorylated Pol II; 2.8 A; Mg, Zn in model
# Settings: protein: native;recombinant; tags: none;His6-MBP, TEV-cleaved; copies: 1;1;1;1;1;1;1;1;1;1;1;1;1
# RNA polymerase II;RECQL5, sequence (O94762 whole entry, one chain of several): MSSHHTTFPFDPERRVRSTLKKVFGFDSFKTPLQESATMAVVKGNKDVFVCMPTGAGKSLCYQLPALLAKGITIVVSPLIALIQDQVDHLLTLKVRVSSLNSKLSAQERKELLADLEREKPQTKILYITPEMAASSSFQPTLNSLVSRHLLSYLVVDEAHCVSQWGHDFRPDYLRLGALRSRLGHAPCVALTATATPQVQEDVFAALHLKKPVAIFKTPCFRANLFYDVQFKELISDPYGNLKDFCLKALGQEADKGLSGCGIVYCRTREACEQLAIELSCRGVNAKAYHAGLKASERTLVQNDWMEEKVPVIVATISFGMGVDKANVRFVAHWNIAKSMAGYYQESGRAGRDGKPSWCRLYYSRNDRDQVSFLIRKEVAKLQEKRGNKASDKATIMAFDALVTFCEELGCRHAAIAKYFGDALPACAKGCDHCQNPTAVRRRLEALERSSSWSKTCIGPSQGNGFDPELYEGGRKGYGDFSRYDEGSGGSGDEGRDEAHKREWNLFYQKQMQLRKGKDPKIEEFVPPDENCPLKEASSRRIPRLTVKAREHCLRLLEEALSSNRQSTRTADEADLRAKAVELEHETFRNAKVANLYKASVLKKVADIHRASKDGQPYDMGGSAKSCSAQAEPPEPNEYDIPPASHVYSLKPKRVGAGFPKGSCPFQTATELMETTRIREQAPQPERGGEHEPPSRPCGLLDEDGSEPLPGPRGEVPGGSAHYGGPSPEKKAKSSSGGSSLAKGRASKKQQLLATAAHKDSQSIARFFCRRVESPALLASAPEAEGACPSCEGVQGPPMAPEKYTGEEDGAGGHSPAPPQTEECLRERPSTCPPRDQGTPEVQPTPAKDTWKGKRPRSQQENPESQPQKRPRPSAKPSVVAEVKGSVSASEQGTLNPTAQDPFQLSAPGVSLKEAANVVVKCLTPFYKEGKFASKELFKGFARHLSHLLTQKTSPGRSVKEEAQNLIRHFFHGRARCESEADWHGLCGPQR
binder,measurement,value
EC DNA-RNA scaffold (mixed) DNA 1: GCTCCCAGCTCCCTGCTGGCTCCGAGTGGGTTCTGCCGCTCTCAATGG DNA 2: CCATTGAGAGCGGCCCTTGTGTTCAGGAGCCAGCAGGGAGCTGGGAGC RNA: GAGAGGGAACCCACU,binding result,binds
